Our source for the fold lower CaM binding signal than for CaMKII values is paper PMC4010494.

The assay addresses chicken lysozyme (chicken) (UniProt P00698). The experiment in a line: far-Western, overlay or dot blot; proteins resolved by SDS-PAGE and transferred to PVDF; biotinylated CaM 1:2400, 30 min at room temperature in TBS-T with 1 mM CaCl2; VectaStain, chemi-luminescence.

Turning to “biotinylated calmodulin (CaM) (from UniProt P0DP23 1-149) (natural protein; other documents disagree on this pair)”, the fold lower CaM binding signal than for CaMKII is 500 fold.
